Results taken from patent publication US20100285583A1, “COMPOUNDS AND METHODS FOR INHIBITING PLATELET AGGREGATION” (priority 2009, published 2010).

Assays:
Human washed platelets [1] = assay: Platelet immunofluorescence analysis (subcellular localization); format: cell-based; conditions: 1.9 μM
Protocol: Washed platelets (50 μl of […] in Tyrode's albumin buffer) were incubated with 1.9 μM of PTB domain constructs for 5 min at room temperature in the presence of 0.25 g/L fibrinogen. Aggregation was initiated by the addition of 10 μM TRAP. Reactions were incubated at room temperature unless otherwise indicated. Platelets were fixed with 0.4 mL of 3.7% formaldehyde in Phosphate Buffered Saline (PBS) for 30 min. Next, 20% goat serum was added to the fixed platelets, and 60% of the total fixed reaction was centrifuged using a Shandon cytospinner onto a Shandon coated cytoslide to achieve the appropriate platelet density for analysis. Slides were then washed twice with PBS for 10 min. Platelets were permeabilized with 0.5% Triton X-100 in PBS for 10 min and then blocked with 20% goat serum in PBS with 0.1% Triton X-100 for 1 h at room temperature. Platelets were washed 3 times with PBS with 0.1% Triton for 10 minutes and further incubated overnight with the anti-Dab2 antibody 1:100 (anti-p96; BD Transduction) in PBS with 0.1% Triton X-100 and 10% goat serum at 4° C. in a humidity chamber. Platelets were then washed and incubated with the anti-mouse Cy-3 conjugated goat antibody 1:250 and Alexa488 conjugated phalloidin (25 μg/mL) in PBS with 0.1% Triton X-100 and 10% goat serum for 2 h. Platelets were washed again and observed on an Olympus IX71 microscope using the Softworx Applied Precision software.
Mean pixel intensity was determined for 400 platelets from four fields each for 3 min and 10 min of treatments by manually drawing circles around individual platelets using the 2D Polygon tool in the Softworx software. For each time point, a threshold of significant mean pixel intensity was defined for the experiment. The percentage of countable platelets to exceed the threshold was calculated for each field and the average of four fields was computed with standard deviation. The ratio of internalization:binding is the quotient of these averages for a treatment.

[2] = Protein-lipid overlay assay, sulfatides; format: binding; conditions: Sphingolipid strips, GST-Dab2 PTB
Protocol: Membrane strips (SphingoStrips™) spotted with 100 pmol of sphingolipids were purchased from Echelon Research Laboratories. Membrane strips were incubated with 0.1 μg/ml of the Dab2 PTB domain or its mutants in 20 mM Tris-HCl (pH 8.0), 150 mM NaCl, 0.1% Tween-20 and 3% fatty acid-free bovine serum albumin overnight at 4° C. Following four washes with the same buffer, proteins bound to the membrane strips were probed with rabbit anti-GST antibody (Santa Cruz Biotech). Donkey anti rabbit-horse radish peroxidase (HRP) antibody was obtained from GE Healthcare. Detection was carried out using ECL reagent (Pierce). Also, lipid strips were prepared by spotting 1 μl of either sulfatides or PtdIns(4,5)P2 dissolved in chloroform:methanol:water (1:2:0.8 and 65:35:8, respectively) onto Hybond-C extra membranes (GE Healthcare) and protein binding was monitored as described above. Bound protein was quantified using the AlphaImager program and binding was calculated as a percentage of GST-PTB binding to 100 pmoles of spotted lipid.

Human washed platelets [3] = assay: Platelet adhesion assay; format: cell-based; conditions: 1.9 μM, TRAP
Protocol: Human washed platelets were incubated with BSA, Dab2 PTB or Dab2 PTB^4M (1.9 μM each) for 5 min at room temperature in the presence of 0.25 g/L fibrinogen. Aggregation was initiated by the addition of 10 μM TRAP, and reactions were incubated 20 min at 37° C. Samples were fixed with 3.7% formaldehyde in PBS, stained with Wright stain, and photographed. Wright stain was eluted with 20% ethanol, and absorbance was quantified at 415 nm.

Washed platelets = assay: Platelet aggregation under flow assay (microfluidics channel); format: cell-based, human; conditions: 10 μM, with sulfatide liposomes, shear rate 70 s^−1
Protocol: The microfluidic device consisted in a simple straight channel 500 μm wide, 50 μm deep and 3.62 cm long. A silicon master stamp was fabricated on a <100> silicon substrate following a previously described process (Ross et al. Ann. Rev. Med. 1987, 38:71-79). Flow was driven using a micro-syringe pump (Cole-Parmer) with a 1 mL syringe connected to the channel inlet by 30 cm of Cole-Parmer gauge 20 Teflon tubing. After priming the system with the sample, the pump was set to 0.05 mL/h (equivalent to an average velocity of 0.55 mm/sec in the channel), which is in the range of in vivo blood velocity (0.1-1.5 mm/sec (9)) and causes a shear rate of 70 sec−1. This flow rate was maintained for 1 min prior to the experiments. Platelets flowing through the channel were monitored using an inverted light microscope (DMI 6000B, Leica Microsystems) equipped with a digital camera (DFC420, Leica Microsystems).
Platelet aggregation is mediated by αIIbβ3 integrin interactions with fibrinogen and fibrin linking platelets together (Furie et al., J. Clin. Invest. 2005; 115 (12): 3355-3362; and Andrews et al., Thromb Res. 2004; 114:447-453). P-selectin links aggregated platelets together stabilizing clot formation (Merten 2001). Sulfatides stimulate increased levels of both αIIbβ3 integrin and P-selectin expression on platelets (Merten 2005). […]

[4] = Surface plasmon resonance, immobilized sulfatide liposomes; conditions: SPR, estimated; read-out: dissociation constant (KD), sulfatide binding
Protocol: Surface plasmon resonance (SPR) binding experiments were performed on a BIAcore X instrument using L1 sensorchips coated with ˜0.5 mM of mixed sulfatides or PtdIns(4,5)P2 size calibrated liposomes. N-PTB domain or its mutants binding experiments were performed in a degassed solution containing 10 mM Tris-HCI (pH 7.4) and 150 mM NaCl. This buffer was used during equilibration, association and dissociation phases. Proteins were added to this buffer at the indicated concentrations. Regeneration of the phospholipid bilayer after dissociation phase was carried out using 20 mM NaOH. For competition SPR, increasing molar amounts of dioctanoyl PtdIns(4,5)P2 were preincubated with 5 μM N-PTB for 20 min at room temperature. The entire reaction was then exposed to an L1 sensorchip containing immobilized sulfatide liposomes (˜0.5 mM).

B1: N-PTB: N-terminal phosphotyrosine binding domain (residues 1-241) of human Disabled-2 (Dab2), expressed as GST-fusion in E. coli (protein)
chain: MSNEVETSATNGQPDQQAAPKAPSKKEKKKGPEKTDEYLLARFKGDGVKYKAKLIGIDDVPDARGDKMSQDSMMKLKGMAARGRSQGQHKQRIWVNISLSGIKIIDEKTGVIEHEHPVNKISFIARDVTDNRAFGYVCGGEGQHQFFAIKTGQQAEPLVVDLKDLFQVIYNVKKKEEEKKKIEEASKAVENGSEALMILDDQTNKLKSGVDQMDLFGDMSTPPDLNSPTESKDILLVDLNS
In the case of B1, the “localization at the platelet surface” value (Human washed platelets [1]; 3 min after TRAP stimulation) is reported as “clearly localized at the platelet surface”, the internalization (Human washed platelets [1]; 10 min after activation) is reported as “internalized” and the binding to sphingolipids [2] is reported as “preferentially bound to sulfatides”. For the same molecule, the “effect on platelet adhesion to fibrinogen” value (Human washed platelets [3]) was “did not significantly affect platelet adhesion to fibrinogen”, the “inhibition of sulfatide induced platelet aggregation under flow” value (Washed platelets) was “returned to the size of untreated platelets” and the “inhibition of sulfatide induced platelet aggregation under flow” value (Washed platelets; listed as N-PTB^4M) was “limited inhibition of platelet aggregate size but not adhesion”. It also gave a Kd [4] of about 1.93 µM.
